This is an account of results in patent US20240352088A1 (AICHI PREFECTURE, published 2024).

The test has as its target T1, IL-6 (interleukin-6) (human, UniProt P05231 30-212).
T1 construct: also called recombinant IL-6; human IL-6
In words: plasma IL-6 by ELISA 1, 2 and 4 h after i.v. human IL-6 (2 µg) in NSG mice given the CAR-T cells. As to the method:
An NALM6 cell line stably transduced with EGFP-P2A-Luc2 (GL) (referred to as a “NALM6-GL cell line”) was administered at 2.5×10⁶ cells/mouse into the tail vein of the NSG mice (Charles River Laboratories Japan, JAX Mice Stock No: 005557). After 10 days, control cells transduced with only a CAR gene or GP130-IL6R-ca7R-transduced CAR-T cells were administered into the tail vein at 3×10⁶ cells/mouse. After another 7 days, 2 μg of human IL-6 was intravenously administered, and blood was collected at 1 hour, 2 hours, and 4 hours after the injection to measure the concentration of IL-6 in plasma by ELISA. Note that the control cells or GP130-IL6R-ca7R-transduced CAR-T cells used for the administration into the NSG mice were stimulated again with the NALM6-GL cell line on day 7 of culture and expanded, and cultured for 11 days.

B1: chimeric cytokine receptor GP130-IL6R-ca7R (receptor)
chain: ELLDPCGYISPESPVVQLHSNFTAVCVLKEKCMDYFHVNANYIVWKTNHFTIPKEQYTIINRTASSVTFTDIASLNIQLTCNILTFGQLEQNVYGITIISGLPPEKPKNLSCIVNEGKKMRCEWDGGRETHLETNFTLKSEWATHKFADCKAKRDTPTSCTVDYSTVYFVNIEVWVEAENALGKVTSDHINFDPVYKVKPNPPHNLSVINSEELSSILKLTWTNPSIKSVIILKYNIQYRTKDASTWSQIPPEDTASTRSSFTVQDLKPFTEYVFRIRCMKEDGKGYWSDWSEEASGITYEDRPGSAGSAAGSGEFVDVPPEEPQLSCFRKSPLSNVVCEWGPRSTPSLTTKAVLLVRKFQNSPAEDFQEPCQYSQESQKFSCQLAVPEGDSSFYIVSMCVASSVGSKFSKTQTFQGCGILQPDPPANITVTAVARNPRWLSVTWQDPHSWNSSFYRLRFELRYRAERSKTFTTWMVKDLQHHCVIHDAWSGLRHVVQLRAQEEFGQGEWSEWSPEAMGTPWTESRSPPAENEVSTPMQALTTNKDDDNILFRDSANATSLPVQDSSSVPLPAAANNSSGEMDPILLPPCLTISILSFFSVALLVILACVLWKKRIKPIVWPSLPDHKKTLEHLCKKPRKNLNVSFNPESFLDCQIHRVDDIQARDEVEGFLQDTFPQQLEESEKQRLGGDVQSPNCPSEDVVITPESFGRDSSLTCLAGNVSACDAPILSSSRSLDCRESGKNGPHVYQDLLLSLGTTNSTLPPPFSLQSGILTLNPVAQGQPILTSLGSNQEEAYVTMSSFYQNQ
notes: Expressed on the surface of human CAR-T cells; also called GP130-IL6R-ca7R(WT)
As to B1, the binding result was “binds”.
